According to patent US20240084005A1 (ALLAKOS, published 2024):

Tests used:
Siglec-6 ECD Fc protein = molecular target: T1, Siglec-6 ECD Fc protein (human, UniProt O43699 27-347); assay: BLI (Octet Red 384), bivalent IgG on immobilized Siglec-6 ECD Fc
T1 construct: also called Siglec-6 full ECD fused to a human Fc; not shown: human Fc
Protocol: Bivalent binding affinities of IgG for Siglec-6 mAbs were measured by biolayer interferometry using a FortéBio Octet Red 384 instrument using immobilized Siglec-6 ECD Fc protein.

[1] = molecular target: T2, Siglec-6 domain 1 fused to a human Fc (human, UniProt O43699 27-147); assay: ELISA on Siglec-6 domain-human Fc fusions (Domain Mapping = 3)
T2 construct: also called domain 1 fusion protein; not shown: human Fc
T2 sequence (O43699 27-147 limits assumed): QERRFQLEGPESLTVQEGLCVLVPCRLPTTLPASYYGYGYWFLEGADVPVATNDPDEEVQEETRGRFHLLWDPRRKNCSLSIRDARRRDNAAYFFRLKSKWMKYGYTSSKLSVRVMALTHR
Protocol: (§1) Domain mapping was assessed by ELISA using recombinantly expressed Siglec-6 extracellular domains fused to a human Fc containing the full ECD, domains 1 and 2, or domain 1. Siglec-6 mAbs were tested for binding to each of these domain fusion proteins and assigned domains based on their specific binding properties. Siglec-6 mAbs that bound to all three fusion proteins were assigned domain 1 binders, mAbs that bound to full ECD and domains 1 and 2 were assigned domain 2 binders, and mAbs that bound to only the full ECD protein were assigned domain 3 binders.

[2] = molecular target: T3, Siglec-6 domains 1 and 2 fused to a human Fc (human, UniProt O43699 27-237); assay: as above
T3 construct: also called domains 1 and 2 fusion protein; not shown: human Fc
T3 sequence (O43699 27-237 limits assumed): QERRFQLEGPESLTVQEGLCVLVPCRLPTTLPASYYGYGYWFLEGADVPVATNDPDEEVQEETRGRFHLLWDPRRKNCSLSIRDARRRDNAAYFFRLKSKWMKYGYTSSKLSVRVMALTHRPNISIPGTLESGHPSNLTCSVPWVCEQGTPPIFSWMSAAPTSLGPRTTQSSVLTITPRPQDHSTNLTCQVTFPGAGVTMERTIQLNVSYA
Protocol: as §1

[3] = molecular target: Siglec-6 (antigen of Example 8) (human, UniProt O43699 27-347, limits assumed); assay: BLI, monovalent Fab
Chain of Siglec-6 (antigen of Example 8) (O43699 27-347 limits assumed): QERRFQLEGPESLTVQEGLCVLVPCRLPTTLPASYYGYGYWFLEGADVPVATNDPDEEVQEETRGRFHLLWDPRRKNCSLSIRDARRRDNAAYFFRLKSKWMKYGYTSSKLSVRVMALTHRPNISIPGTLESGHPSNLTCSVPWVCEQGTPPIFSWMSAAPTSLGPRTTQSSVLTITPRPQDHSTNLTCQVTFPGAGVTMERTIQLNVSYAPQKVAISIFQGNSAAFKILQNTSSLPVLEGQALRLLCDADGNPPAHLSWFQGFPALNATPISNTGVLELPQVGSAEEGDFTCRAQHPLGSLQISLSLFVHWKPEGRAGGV

[4] = molecular target: T2, Siglec-6 domain 1 fused to a human Fc; assay: ELISA on Siglec-6 domain-human Fc fusions (Domain Mapping = 2)
Protocol: as §1

T1 sequence (O43699 27-347): as the sequence (O43699 27-347 limits assumed) above

Molecule	Kd (Siglec-6 ECD Fc protein)	binding result [1]	binding result [2]	also measured
R&D MAB2859 (antibody)	9 pM			
AK14 (antibody, V domains shown, also called anti-Siglec-6 mAb AK14) VH: QIQLVQSGPELKKPGETVKISCKASGYTFTTYGMSWVKQAPGKGLKWMGWINTYSGVPTYADDFKGRFAFSLETSATTAYLQINNLKNEDTATYFCARLAYFGYYFDFWGQGTTLTVSS VL: DIVMTQSQKFMSTTVGDRVSFTCKASQNVGSAVAWYQQKPGQSPKLLIYSASNRYTGVPDRFTGSGSGTDFTLTISNMQSEDLADYFCQQYSSYPYTFGGGTKLEIK	72 pM	no binding	no binding	
AK09 (antibody, V domains shown, also called anti-Siglec-6 mAb AK09) VH: QIQLVQSGPELKKPGETVKISCKASGYTLTTYGMSWVKQAPGKGLKWMGWINTYSGVPTYADEFKGRFAFSLETSASTAYLQINNLKNEDTATYFCARLGYYGYYFDYWGQGTTLTVSS VL: DVVLTQSPATLSVTPGDSVSLSCRASQSIRNNLHWYQQKSHESPRLLIKYIFQSISGIPSRFSGSGSGTEFTLSINSVETEDFGMYFCQQSDSWPHVTFGAGTKLELI	110 pM	no binding	no binding	
AK13 (antibody, V domains shown, also called anti-Siglec-6 mAb AK13) VH: QIQLVQSGPELKKPGETVKISCKASGYTFTTYGMSWVKQAPGKGLKWMGWINTYSGVPTYADDFKGRFAFSLETSATTAYLQINNLKNEDTATYFCARLAYFGYYFDFWGQGTTLTVSS VL: DIVMTQSQKFMSTTVGDRVSFTCKASQNVGSAVTWYQQKPGQSPKLLIYSASNRYTGVPDRFTGSGSGTDFTLTISNMQSEDLADYFCQQYSSYPYTFGGGTKLEIK	63 pM	no binding	no binding	
AK15 (antibody, V domains shown, also called anti-Siglec-6 mAb AK15) VH: QVQLKESGPGLVAPSQSLSITCTVSGFSLTSYGVSWVRQPPGKGLEWLGIIWGDGSTNYHSALISRLSISKDKSKSQVFLKLNSLQADDTATYYCAKGLSDWYFDVWGTGTTVTVSS VL: QIVLSQSPAILSASPGEKVTMTCRASSSVSYMHWYQQKPGSSPKPWIYATSNLASGVPARFSGSGSGTSYSLTISRVEAEDAATYYCQQWSSNPYTFGGGTKLEIK	1040 pM	no binding	no binding	
AK03 (antibody, V domains shown, also called anti-Siglec-6 mAb AK03) VH: EVQLQQSGTVLARPGASVKMSCKTSGYTFTSYWMHWVKQRPGQGLEWIGTIYPGNSDSTYNQKFKGKAKLTAVTSASTAYMEVSSLTNEDSAVYYCSREGTVVANYYGLDYWGQGTSVTVSS VL: QIVLSQSPAILSASPGEKVTMTCRASSSVSYIHWYQQKPGSSPKPWIYATSNLASGVPARFSGSGSGTSYSLTISRVEAEDAATYYCQQWSSKPPTFGAGTKLELK	1 pM			
AK02 (antibody, V domains shown, also called anti-Siglec-6 mAb AK02) VH: QVQLQQPGAELVKPGASVKLSCKASGYTFTNYYIHWVKQRPGQGLEWIGMIHPISGSTNYNEKLKIKATLTVDKSSSTAYMQLSSLTSEDSAVYYCARRYYGSSYWYFDVWGTGTTVTVSS VL: QIVLSQSPAILSASPGEKVTMTCRASSSVSYMNWYQQKPGSSPKPWIYATSNLASGVPARFSGSGSGTPYSLTISRVEAEDAATYYCQQWSSHPPTFGSGTKLEIK	7 pM			
AK12 (antibody, V domains shown, also called anti-Siglec-6 mAb AK12) VH: QVQLKQSGPGLVQPSQSLSITCTVSGFSLTSYGVHWVRQSPGKGLEWLGVIWGGGSTDYNAGFISRLSISKDNSKSQVFFKMNSLQADDTAIYYCARALSDWYFDVWGTGTTVTVSS VL: QIVLSQSPAILSASPGEKVTMTCRASSSVSYMHWYQQKPGSSPKPWIYATSNLASGVPARFSGSGSGTSYSLTISRVEAEDAATYYCQQWSSNPLTFGAGTKLELK	87 pM	no binding	no binding	
AK08 (antibody, V domains shown, also called anti-Siglec-6 mAb AK08) VH: QVQLKESGPGLVAPSQSLSITCTVSGFSLTSYGVNWIRQPPGKGLEWLGVIWGDGSTNYHSALISRLSISKDNSKSQVFLKLNSLQTDDTATYYCAKALSDWYFDVWGTGTTVTVSS VL: QIVLSQSPAILSASPGEKVTMTCRASSSVSYMHWYQQKPGSSPKPWIYATSNLASGVPARFSGSGSGTSYSLTISRVEAEDAATYYCQQWSSNPYTFGGGTKLEIK	261 pM	no binding	no binding	
AK05 (antibody, V domains shown, also called anti-Siglec-6 mAb AK05) VH: QVQLQQPGTELVKPGASVQLSCKASGYIFTSYWMYWVKQRPGQGLEWIGNVNPYSGDTNYNEKFKTKATLTVDKASSTAFIQLSGLTSEDSAVYFCARGDGLYYYAMDYWGQGTSVTVSS VL: DIKMTQSPSSMYASLGERVTITCKASQDINSYLTWFQQKPGKSPKTLIYRASRLVDGVPSRFSGSGSGQDYSLTISSLEYEDMGIYYCLQYDEFPLTFGAGAKLELI	55 pM			
AK06 (antibody, V domains shown, also called anti-Siglec-6 mAb AK06) VH: EVPLVESGGGLVKPGGSLKLSCAASGFTFSDYGIHWVRQAPEKGLEWVAYITSVSSTIYYADTVKGRFTISRDNAKNTLFLQMTSLRSEDTAMYYCAILDWYFDVWGTGTTVTVSS VL: QIVLTQSPAIMSASPGEKVTMTCSANSSVSFMHWFQQKSGTSPKRWIYDTSKLASGVPARFSASGSGTSYSLTISSMEAEDAATYYCQQWSSNPLTFGAGTKVELK	24 pM			
AK07 (antibody, V domains shown, also called anti-Siglec-6 mAb AK07) VH: EVQLQQSGPELVKPGASVKMSCKASGYTFTDYKMHWVKQSHGKSLEWIGNINPNNGGTSYNQKFKGKATLTVNKSSSTAYMELRSLTSEDSAVYYCARRYYGSSSSYFDYWGQGTTLTVSS VL: QIVLTQSPAIMSASPGEKVTMTCSVSSSVSYMHWYQQKSGTSPKRWIYDTSKLASGVPARFSGSGSGTSYSLTISSMEAEDAATYYCQQWSSNPPTFGAGTKLELK	69 pM			
AK04 (antibody, V domains shown, also called anti-Siglec-6 mAb AK04; AK04 IgG1) VH: QVQLKESGPGLVAPSQSLSITCTVSGFSLTSYGVSWVRKPPGKGLEWLGVIWHDGSTSYHSTLISRLNISRDNSKSQVFLKLNSLQTDDTATYYCASDGYSGTFAYWGQGTLVTVSA VL: QIVVTQSPAIMSASLGERVTMTCTASSSVSSSYLHWYQQKPGSSPKLWIYSTSILASGVPARFSGSGSGTSYSLTVSSMEAEDAATYYCHQYHRSPYTFGGGSKLEIR	1 pM			
AK04 Reference Fab (Fab, V domains shown) VH: QVQLKESGPGLVAPSQSLSITCTVSGFSLTSYGVSWVRKPPGKGLEWLGVIWHDGSTSYHSTLISRLNISRDNSKSQVFLKLNSLQTDDTATYYCASDGYSGTFAYWGQGTLVTVSA VL: QIVVTQSPAIMSASLGERVTMTCTASSSVSSSYLHWYQQKPGSSPKLWIYSTSILASGVPARFSGSGSGTSYSLTVSSMEAEDAATYYCHQYHRSPYTFGGGSKLEIR				Kd [3]: 75 pM; koff [3]: 6.5e-05 s⁻¹; kon [3]: 860000 M⁻¹ s⁻¹
AK11 (antibody, V domains shown, also called anti-Siglec-6 mAb AK11) VH: EVMLVESGGGLVKPGGSLKLSCAASGFSFSTYVMSWVRQTPEKRLEWVASISGGGSNTYYPDSVKGRFTISRDNAKNTLYLQMSSLRSEDTALYYCARREVVVYWYFDVWGTGTTVTVSS VL: DIQMTQSPASLSVSVGETVTITCRASENIYSNLAWYQQKQGKSPQLLVFSAKNLADGVPSRFGGSGSGTQYSLKINSLQSEDFGTYYCQHFWGTPLTFGAGTKLELK	2 pM			binding result [4]: no binding
AK19 Fab (Fab, V domains shown) VH: QVQLQESGPGLVKPSETLSLTCTVSGFSLTSYGVSWIRQPPGKGLEWIGVIWHDGSTSYHSTLISRVTISRDTSKNQVSLKLSSVTAADTAVYYCASDGYSGTFAYWGQGTLVTVSS VL: QIVVTQSPATLSLSPGERATLSCTASSSVSSSYLHWYQQKPGQAPRLLIYSTSILASGIPARFSGSGSGTDFTLTISSLQPEDFAVYYCHQYHRSPYTFGQGTKLEIK				Kd [3]: 32 pM; koff [3]: 2.6e-05 s⁻¹; kon [3]: 830000 M⁻¹ s⁻¹
AK20 Fab (Fab, V domains shown) VH: QVQLQESGPGLVKPSETLSLTCTVSGFSLTSYGVSWIRQPPGKGLEWIGVIWHDGSTSYHPSLKSRVTISRDTSKNQVSLKLSSVTAADTAVYYCASDGYSGTFAYWGQGTLVTVSS VL: QIVVTQSPATLSLSPGERATLSCTASSSVSSSYLHWYQQKPGQAPRLLIYSTSILASGIPARFSGSGSGTDFTLTISSLQPEDFAVYYCHQYHRSPYTFGQGTKLEIK				Kd [3]: 120 pM; koff [3]: 9.1e-05 s⁻¹; kon [3]: 750000 M⁻¹ s⁻¹
AK21 Fab (Fab, V domains shown) VH: QVQLQESGPGLVKPSETLSLTCTVSGFSLSSYGVSWIRQPPGKGLEWIGVIWHDGSTNYNPSLKSRVTISRDTSKNQVSLKLSSVTAADTAVYYCASDGYSGTFAYWGQGTLVTVSS VL: QIVVTQSPATLSLSPGERATLSCTASSSVSSSYLHWYQQKPGQAPRLLIYSTSILASGIPARFSGSGSGTDFTLTISSLQPEDFAVYYCHQYHRSPYTFGQGTKLEIK				Kd [3]: 40 pM; koff [3]: 3.7e-05 s⁻¹; kon [3]: 920000 M⁻¹ s⁻¹
AK01 (antibody, V domains shown, also called anti-Siglec-6 mAb AK01) VH: QVQLKQSGPGLVQPSQSLSITCTVSGFSLTSYSVHWVRQSPGKGLEWLGVIWSGGSTDYNAVFISRLSISRDNSKSQVFFKMNSLQADDSAIYYCASYSYYTMDYWGQGTSVTVSS VL: DVVMTQTPLSLPVSLGDQASISCRSSQSLVLDNGNTYLHWYLQKPGQSPKLLIYKVSNRFSGVPDRFTGSGSGTDFTLKINRVEAEDLGVYFCSQSTHVPFTFGSGTKLEIK	1 pM			
